Drawing on PMC8499627 (Antibody Therapeutics, 2021), this text covers binding result and Kd for 3 molecules.

Holding throughout (conditions): both partners purified
In assay [1] the target is T1, SEQ13 peptide (HBsAg aa 113-135) (Hepatitis B virus, strain  …, UniProt P03141).
T1 construct: source: synthetic peptide, bought: Sangon Biotech
T1 chain: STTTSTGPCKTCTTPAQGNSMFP
As to the kind of experiment: ELISA; indirect ELISA kits (Beijing Wantai) on HBsAg, CR-T3-SEQ13 or SEQ13 peptides; purified antibodies titrated, EC50s.

For assay [2], the target named is T2, Recombinant HBsAg protein (hepatitis B surface antigen) (Hepatitis B virus, strain ; …, UniProt P03141).
T2 construct: source: bought: Beijing Wantai Biological Pharmacy Enterprise
As to the kind of experiment: SPR; Biacore 3000, 10°C; HBsAg immobilised (2 400 RU, sodium acetate pH 4.5); antibody 1.56-100 nM, 50 μL/min, 90 sec association, 600 sec dissociation.

Assay [3] concerns the target T2, Recombinant HBsAg protein (hepatitis B …). As to the kind of experiment: ELISA; indirect ELISA kits (Beijing Wantai) on HBsAg, CR-T3-SEQ13 or SEQ13 peptides; purified antibodies titrated, EC50s.

Residue numbers refer to the chain shown, from its start.

B1: hu1-23 (antibody, V domains shown)
VH: QVQLQESGPGLVKPSETLSLTCTVSGGSITSNFWSWIRQPPGKGLEWIGYISGSGTYTDYNPSLKSRVTISVDTSKNQFSLKLSSVTAADTAVYYCARSHDYGSNDYAFDFWGQGTTVTVSS
VL: DIQMTQSPSSLSASVGDRVTITCRATQDISSSLNWYQQKPGKAPKLLIYYANRLQSGVPSRFSGSGSGTDFTLTISSLQPEDFATYYCQQYHSLPLTFGGGTKVEIK
notes: humanized VH: CDRs (IMGT) of C1-23 grafted on the most closely related human germline; humanized VK: CDRs (IMGT) of C1-23 grafted on the most closely related human germline; Human IgG1 CH and CK constant regions; also called humanized 1-23; Humanized antibody hu1-23; source: HEK-293F, transfected, purified (protein A)
Regarding B1, the binding result in assay [1] was “binds”. For the same molecule, in assay [2], the Kd came to 1.06 nM.

B2: C1-23 (antibody, V domains shown)
VH: B1 VH with T17I, L20V, T23S, K65R, I70L, F79L, T116L, T117R
VL: B1 VL with D1E, Q3V, K45Q, Q55E, S63R, D70E, A84T
notes: cynomolgus monkey VH of monkey #1; cynomolgus monkey VL of monkey #1; Monkey-human chimeric antibody, human IgG1 constant regions; parent of hu1-23; source: HEK-293F, transfected, purified (protein A)
As to B2, the binding result in assay [1] and in assay [3] was “binds” in each case.

B3: C3-13 (antibody, V domains shown)
VH: QVQLQESGPRLVKSSETLPLTCAVSGASNSSNYWSWIRQPPGKGLEWIGRIYGNSGSTDYNPSLKSRVSISTDTSKNQFSLKLSSVTAADTAVYFCARGSVYTYSWGQGVLVTVSS
VL: DIQMSQSPDSLAVSLGERVTINCKSSQSLLYSSNNKNYLAWYQQKPGQAPKLLFYWASTRESGVPNRFSGSGSGTDFTLTIRGLQAEDVAVYYCQQHYTTPLTFGQGTKVEIK
notes: cynomolgus monkey VH of monkey #3; cynomolgus monkey VL of monkey #3; Monkey-human chimeric antibody, human IgG1 constant regions; source: HEK-293F, transfected, purified (protein A)
B3: the binding result in assay [1] and in assay [3] was “binds” throughout.
